Results reported in paper PMC4165486 (Vaccine, 2011).

Key:
AUC [1] = target: the molecule itself; experiment: AUC
AUC [2] = target: the molecule itself; experiment: AUC; remark: listed apart in the source

B1: poly-epitope P181 (P90-DEG-P77-DEG-P27) (peptide)
chain: TKKLNKELSEGNKELEKLEKNIKELEETNNTLENDIKVEKLKKYNNEISSLKKELDILNEKMGKCTKKRNVEEELHSLRKNYNIINEEIEEIT
modifications: derivatized diethylene glycol (DEG) linker inserted between P90 and P77 and between P77 and P27
stoichiometry N (AUC [1]): 2 | Kd (AUC [2]): 115 µM
